Drawing on publication PMC9975939, this text covers stoichiometry N for 1 molecule.

The test concerns the target T1, untagged NDP52 wild type (human), Q13137.
T1 chain: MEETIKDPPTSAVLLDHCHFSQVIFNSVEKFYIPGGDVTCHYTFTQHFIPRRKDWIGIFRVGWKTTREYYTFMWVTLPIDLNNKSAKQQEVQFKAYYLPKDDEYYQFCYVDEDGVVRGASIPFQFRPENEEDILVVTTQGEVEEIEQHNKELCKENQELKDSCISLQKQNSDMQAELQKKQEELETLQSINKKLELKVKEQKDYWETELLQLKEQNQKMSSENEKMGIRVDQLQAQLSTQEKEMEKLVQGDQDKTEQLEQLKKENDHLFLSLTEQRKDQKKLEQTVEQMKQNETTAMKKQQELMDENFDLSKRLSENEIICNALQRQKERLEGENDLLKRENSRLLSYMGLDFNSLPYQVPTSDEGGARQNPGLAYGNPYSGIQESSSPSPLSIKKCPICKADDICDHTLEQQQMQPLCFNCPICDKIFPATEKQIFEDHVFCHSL
In words: native gel or EMSA; blue native PAGE (4–16% NativePAGE gel, Coomassie G-250) of recombinant NDP52 WT and Mut, immunoblot. Particulars: remark: other sources report otherwise. For orientation: Mobility shift assays separate free from complexed probe on a gel.

B1: untagged NDP52 wild type, Q13137 1-446 (natural protein)
chain: T1 chain
With B1, the stoichiometry N amounted to 2.

One may read the stoichiometry N as the number of molecules, sites or subunits per partner or assembly.
